Data from patent US6764680.

Assays:
[1] = target: rabbit antiserum against CTP37, rabbit # 4164; test: competition immunoassay, peptide competitor against rabbit antiserum 4164; legend: ++ = ED 50 < 250 ng
[2] = target: rabbit antiserum against COMBINED LOOP + CTP37, rabbit # 4165; test: competition immunoassay, peptide competitor against rabbit antiserum 4165; legend: ++ = ED 50 < 250 ng
[3] = target: rabbit antiserum against COMBINED LOOP + CTP37, rabbit # 4166; test: competition immunoassay, peptide competitor against rabbit antiserum 4166; legend: ++ = ED 50 < 250 ng
[4] = target: rabbit antiserum against COMBINED LOOP + CTP37, rabbit # 4173; test: competition immunoassay, peptide competitor against rabbit antiserum 4173; legend: ++ = ED 50 < 250 ng

- ED50 [1]: 10 to 250 ng
- ED50 [2]: 10 to 250 ng
- ED50 [3]: 10 to 250 ng
- ED50 [4]: 10 to 250 ng
Binder: CDDPRFQDSSSSKAPPPSLPS [hCG-CTP21 (residues 130-150 of the beta subunit of hCG)]
